Data taken from the supplement of paper PMC10126150.
± gives the standard deviation of the averaged measurements.

System: ATP
Experiment: switch fluorescence ratio, 500 uM ATP over buffer (Cy3 cluster intensity, sum of 5 cycles each) (fold (ratio)); higher = stronger signal-on switching upon ATP binding; sequences stand for … in TCGTCGGCAGCGTCAGATGTGTATAAGAGACAGTTTTTTTTTTTTTTTTTTTTTTTTT…TC
Conditions: aptamer strand: ATP DNA aptamer (quencher-CACCTGGGGGAGTATTGCGGAGGAAGG + anchor), 100 nM annealed; ATP concentration: 500 uM
Procedure, shortened: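 Five buffer/ATP imaging cycles were run on Cy3-labelled switching-strand clusters on a modified Illumina MiSeq flow-cell, with NaOH stripping and re-annealing between cycles. In each cycle, clusters annealed to 100 nM quencher-labelled ATP aptamer were imaged in selection buffer, then after 15 min with 500 uM ATP at 22 °C. Per cluster, the fluorescence ratio is summed target-cycle over summed buffer-cycle Cy3 intensity, averaged per switch-domain sequence. Only clusters within 100-1000 RFU were kept.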
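Note: ATP exposure 15 min at 22 °C before imaging.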

Sequence	switch fluorescence ratio
GTTTTATGGT	0.968 ± 0.0075
TCCTTTTATG	0.98329 ± 2.8e-05
TTTTTGGCTT	1.02 ± 0.093
TTATAATTGA	1.02 ± 0.031
GCGATTTCGG	0.985 ± 0.023
GGGACTCGTG	1.04 ± 0.053
CGCTGGGTTT	0.976 ± 0.035
AAGTTCGTTT	0.986 ± 0.026
GACGTGACGA	1.15 ± 0.019
AATTGATAGG	0.982 ± 0.041
GGCCGCGCTG	1.04 ± 0.016
GCGCACCACG	1.06 ± 0.029
GAGTTCGGGA	1.02 ± 0.029
TGCATCAATA	1.03 ± 0.039
TATGGTGAGG	0.976 ± 0.013
TAGTATGGGA	0.968 ± 0.013
CTTAGGGATT	0.987 ± 0.031
TCGGGAAATT	1.012 ± 0.0019
TCCTTCACGA	2.067 ± 0.017
CGTTAAACTT	1.01 ± 0.012
TAACGACCGC	1.24 ± 0.03
AAAGATTTTG	0.982 ± 0.031
TTTTAAAAAC	1.05 ± 0.049
AGTGACTTTT	0.9961 ± 0.0089
TTAATAGTC	1.05 ± 0.0041
ATGGTTATGT	1.03 ± 0.026

Sequence	switch fluorescence ratio
AAGGGGATTT	0.975 ± 0.016
TTGGTACTTA	0.995 ± 0.013
AATTATTGTA	0.979 ± 0.049
TTCAAGACGG	0.995 ± 0.023
ACTACGTTAC	2.88 ± 0.039
CCCGATCATA	1.02 ± 0.017
CTAATGATGG	1.01 ± 0.056
TTGGGACAAT	1.04 ± 0.044
ACTTACAGGG	1.171 ± 0.0058
ACGGAAACGC	1.1 ± 0.02
TATGGTCAG	1.02 ± 0.042
TCAACTATAG	0.999 ± 0.01
GTTGTTAGGT	0.97 ± 0.022
TTATGGGAAA	1.02 ± 0.023
GTTATAAAGT	0.99 ± 0.024
GGAAGGGAAC	0.988 ± 0.033
TTAATAGAGT	1 ± 0.018
GCAGTGAGGG	0.991 ± 0.028
TCAGGGATTG	0.977 ± 0.017
AGGGGGAGCT	1.005 ± 0.0056
GGTATGCTCT	0.998 ± 0.065
GACGGAAGCA	1.38 ± 0.11
ATTCGGGGGC	1.11 ± 0.2
CGTCTGTCTG	0.976 ± 0.033
GGGTCATTAA	0.9905 ± 0.0088
TTGCTCACTT	1.04 ± 0.029

Sequence	switch fluorescence ratio
CGGAGTTATG	1.09 ± 0.04
GCCACAGCTG	1 ± 0.013
TCCCGGTTTT	1.1 ± 0.11
CAAAGATAAT	1.01 ± 0.039
CATTTTGTCT	1.018 ± 0.0047
CAAAAAACGA	0.999 ± 0.066
GGGATAGGCC	1.02 ± 0.032
GGACGGTCTT	1.01 ± 0.043
GCCTTGGACG	1.041 ± 0.0076
TAAGAGGGTA	0.974 ± 0.06
CTAGGTTGCA	0.9871 ± 0.0052
TTGGGCCCTG	1.06 ± 0.014
GGGGGGAGTT	0.999 ± 0.038
GAAGGAGCAA	2.54 ± 1.2
CGGAAGCTTT	1.04 ± 0.021
ATTGGGGAGG	0.974 ± 0.012
ATGTCGACAC	0.976 ± 0.02
CCCCTCGAGG	0.966 ± 0.049
TGGTGTATGG	1.01 ± 0.035
AATGCGGGGG	1 ± 0.025
TGCTGGTGTA	1.02 ± 0.025
CATTGCAA	1 ± 0.085
AATGGGGTAA	0.995 ± 0.014
AGGCAATGTC	1.48 ± 0.17
